Measured values taken from US20070248613A1 (MERCK, published 2007).
Where “and” joins values, the source holds several entries; their conditions need not be identical. Equal values may be shown once.

B1: D5 IgG (antibody, V domains shown)
VH: QVQLVQSGAEVRKPGASVKVSCKASGDTFSSYAISWVRQAPGQGLEWMGGIIPIFGTANYAQKFQGRVTITADESTSTAYMELSSLRSEDTAIYYCARDNPTLLGSDYWGKGTLVTVSS
VL: DIQMTQSPSTLSASIGDRVTITCRASEGIYHWLAWYQQKPGKAPKLLIYKASSLASGAPSRFSGSGSGTDFTLTISSLQPDDFATYYCQQYSNYPLTFGGGTKLEIK
notes: also called D5 IgG4; D5 antibody
B2: 5H/I1-BMV-B11 scFv (scFv)
scFv: QVQLVQSGAEVKKPGSSVKVSCKASGGTFSSYAISWVRQAPGQGLEWMGGIIPLFDTSNYAQNFQGRITITADKSTSTAYMELSSLRFEDTAIYYCARDNPLLLAMDVWGKGTTVTVSSGGGGSGGGGSGGGGSDIQMTQSPSTLSASIGDRVTITCRASEGIYHWLAWYQQKPGKAPKLLIYKASSLASGAPSRFSGSGSGTDFTLTISSLQPDDFATYYCQQYSNYPLTFGGGTKLEIK
notes: also called scFv B11
B3: 5H/I1-BMV-D5 scFv (scFv)
scFv: QVQLVQSGAEVRKPGASVKVSCKASGDTFSSYAISWVRQAPGQGLEWMGGIIPIFGTANYAQKFQGRVTITADESTSTAYMELSSLRSEDTAIYYCARDNPTLLGSDYWGKGTLVTVSSGGGGSGGGGSGGGGSDIQMTQSPSTLSASIGDRVTITCRASEGIYHWLAWYQQKPGKAPKLLIYKASSLASGAPSRFSGSGSGTDFTLTISSLQPDDFATYYCQQYSNYPLTFGGGTKLEIK
notes: also called scFv D5

What was measured:
[1] = target: T1, gp41 of the HIV-1 HXB2 envelope (HIV-1 strain HXB2, UniProt P04578 512-856); assay: cell-based or functional assay
[2] = target: gp41 of the HIV-1 MN-1 envelope (HIV-1 strain MN-1, UniProt P05877 514-856); assay: cell-based or functional assay
[3] = target: gp41 of the HIV-1 NL4-3 envelope (HIV-1 strain NL4-3); assay: cell-based or functional assay
[4] = target: gp41 of the HIV-1 89.6 envelope (HIV-1 strain 89.6); assay: cell-based or functional assay
[5] = target: gp41 of the HIV-1 BaL envelope (HIV-1 strain BaL); assay: cell-based or functional assay
[6] = target: T2, 5-Helix (HIV-1); assay: SPR (Biacore)
T2 construct: also called HIV-1 gp41-derived 5-Helix; biotinylated 5-Helix

[7] = target: T1, gp41 of the HIV-1 HXB2 envelope; assay: cell-based or functional assay; remark: listed apart in the source
[8] = target: T2, 5-Helix; assay: phage ELISA on biotinylated peptide captured on streptavidin plates
[9] = target: gp41 of the HIV-1 BaL envelope (HIV-1 strain BaL); assay: cell-based or functional assay; remark: listed apart in the source

Row | Binder | D5 IgG IC50 (nM), single cycle infectivity assay [1] [nM] | D5 IgG IC50 (nM), single cycle infectivity assay [2] [nM] | D5 IgG IC50 (nM), single cycle infectivity assay [3] [nM] | D5 IgG IC50 (nM), single cycle infectivity assay [4] [nM] | D5 IgG IC50 (nM), single cycle infectivity assay [5] [nM] | Kd [6] [nM] | koff [6] [s⁻¹] | kon [6] [M⁻¹ s⁻¹] | IC50, single cycle infectivity assay against HIV-HXB2 [7] [nM] | binding result [8] | IC50 (printed TC50), single cycle infectivity assay against HIV-HXB2 [7] [nM] | IC50, single cycle infectivity assay [7] | IC50, single cycle infectivity assay [9]
1 | B1 | 310 | 393 | 226 | 1750 | 93 | 0.26 | 0.0001 | 390000 | 261 | – | – | – | –
2 | B2 | – | – | – | – | – | – | – | – | – | binds | – | – | –
3 | B3 | – | – | – | – | – | – | – | – | – | binds | 238 | 320 nM and 8 ug/ml | 600 nM and 15 ug/ml
